The text below walks through data of patent US20120164659A1 (NEXIGEN, published 2012).

Assay [1] deals with T1, Sos-2xSpc-Vif fusion protein (negative control target protein, expressed from pADH-Sos-2xSpc-vif).
T1 construct: Heterologous control bait in cdc25-2 yeast; also called Sos-Vif; SOS-Vif
The assay is described as follows: Sos recruitment system in cdc25-2 yeast, growth at 37 C on galactose (FIG. 2 row D: MARCH7+SOS-Vif).

Assay [2] addresses T1, Sos-2xSpc-Vif fusion protein (negative …). The assay is described as follows: Sos recruitment system in cdc25-2 yeast, growth at 37 C on galactose (FIG. 2 row B: GBP2+Sos-Vif).

B1: membrane-associated Ring-finger 7 (MARCH7), prey fusion with myristoylation signal from the human hepatocyte cDNA library (other)
chain: MESKPSRIPRRISVQPSSSLSARMMSGSRGSSLNDTYHSRDSSFRLDSEYQSTSASASASPFQSAWYSESEITQGARSRSQNQQRDHDSKRPKLSCTNCTTSAGRNVGNGLNTLSDSSWRHSQVPRSSSMVLGSFGTDLMRERRDLERRTDSSISNLMDYSHRSGDFTTSSYVQDRVPSYSQGARPKENSMSTLQLNTSSTNHQLPSEHQTILSSRDSRNSLRSNFSSRESESSRSNTQPGFSYSSSRDEAPIISNSERVVSSQRPFQESSDNEGRRTTRRLLSRIASSMSSTFFSRRSSQDSLNTRSLNSENSYVSPRILTASQSRSNVPSASEVPDNRASEASQGFRFLRRRWGLSSLSHNHSSESDSENFNQESEGRNTGPWLSSSLRNRCTPLFSRRRREGRDESSRIPTSDTSSRSHIFRRESNEVVHLEAQNDPLGAAANRPQASAASSSATTGGSTSDSAQGGRNTGISGILPGSLFRFAVPPALGSNLTDNVMITVDIIPSGWNSADGKSDKTKSAPSRDPERLQKIKESLLLEDSEEEEGDLCRICQMAAASSSNLLIEPCKCTGSLQYVHQDCMKKWLQAKINSGSSLEAVTTCELCKEKLELNLEDFDIHELHRAHANEQAEYEFISSGLYLVVLLHLCEQSFSDMMGNTNEPSTRVRFINLARTLQAHMEDLETSEDDSEEDGDHNRTFDIA
modifications: myristoylation signal at the N-terminus (membrane localisation)
notes: also called axotrophin; membrane-associated RING-CH protein VII; not shown: myristoylation signal of the pmyr library vector
For the molecule B1, the binding result in assay [1] is listed as “no binding”.

B2: Interferone-induced guanylate binding protein-2 (GBP2), prey fusion with myristoylation signal from the human hepatocyte cDNA library (other)
chain: MAPEINLPGPMSLIDNTKGQLVVNPEALKILSAITQPVVVVAIVGLYRTGKSYLMNKLAGKKNGFSLGSTVKSHTKGIWMWCVPHPKKPEHTLVLLDTEGLGDIEKGDNENDSWIFALAILLSSTFVYNSMGTINQQAMDQLHYVTELTDRIKANSSPGNNSVDDSADFVSFFPAFVWTLRDFTLELEVDGEPITADDYLELSLKLRKGTDKKSKSFNDPRLCIRKFFPKRKCFVFDWPAPKKYLAHLEQLKEEELNPDFIEQVAEFCSYILSHSNVKTLSGGIPVNGPRLESLVLTYVNAISSGDLPCMENAVLALAQIENSAAVEKAIAHYEQQMGQKVQLPTETLQELLDLHRDSEREAIEVFMKNSFKDVDQMFQRKLGAQLEARRDDFCKQNSKASSDCCMALLQDIFGPLEEDVKQGTFSKPGGYRLFTQKLQELKNKYYQVPRKGIQAKEVLKKYLESKEDVADALLQTDQSLSEKEKAIEVERIKAESAEAAKKMLEEIQKKNEEMMEQKEKSYQEHVKQLTEKMERDRAQLMAEQEKTLALKLQEQERLLKEGFENESKRLQKDIWDIQMRSKSLEPICNIL
modifications: myristoylation signal at the N-terminus (membrane localisation)
notes: also called NM-004120; not shown: myristoylation signal of the pmyr library vector
On to B2, for which the binding result in assay [2] is on record as “no binding”.
